According to FireProtDB (doi:10.1016/s0022-2836(03)00043-3):

Conditions: Homo sapiens; pH 8.5; 20 °C; Urea; CD; Tris 10 mM; reversible: yes; whole UniProt chain shown

B1: Cyclin-dependent kinase inhibitor 2A wild type, P42771 (protein)
chain: MEPAAGSSMEPSADWLATAAARGRVEEVRALLEAGALPNAPNSYGRRPIQVMMMGSARVAELLLLHGAEPNCADPATLTRPVHDAAREGFLDTLVVLHRAGARLDVRDAWGRLPVDLAEELGHRDVARYLRAAAGGTRGSNHARIDAAEGPSDIPD
denaturant m value: 1.72 kcal/mol/M
denaturant midpoint (higher = more stable): 2 M
unfolding free energy: 3.34 kcal/mol
